Assay: Detection of test substance in rat plasma by LC-MS/MS (Test Example 3)
Assay type: in vivo
Settings: rat plasma, 100 nmol/kg i.v., LC-MS/MS; time at which the test substance was finally detected
Description: Before the administration and 15, 30, 60, 90, 120, 180, and 240 minutes after the administration, blood was sampled (200 μL/sampling) over time from the jugular vein. The blood samples were immediately left on ice.
The collected blood samples were centrifuged at 5000 rpm at 4° C. for 5 minutes by use of a centrifuge (Sigma 4K15, rotor: Nr12130-H). The separated plasma samples were divided into two types (samples for PK measurement and for cGMP measurement) and stored at −80° C. until measurement.
An internal standard (20 μL (500 nM) of a stable isotope of hANP) and an acetic acid mixed solvent (AcOH/distilled water/DMSO=5/3/2, v/v/v) were added to 50 μL of each rat plasma sample prepared in (1) and then mixed therewith. The mixture was transferred to Amicon Ultra-0.5 50K (Millipore Corp., MA) and centrifuged at 14000 rpm at 15° C. for 30 minutes. The obtained filtrate was transferred to Amicon Ultra-0.5 3K (Millipore Corp., MA) and centrifuged again under the aforementioned conditions. The solution remaining on the filter was recovered and transferred to a 96-well deep well plate. The content of the test substance was measured by LC-MS/MS (LC: Shimadzu LC-10ADVP (Shimadzu Corp.), MS/MS: API 4000 QTrap (AB SCIEX)) to calculate the concentration in plasma. The time at which the test substance was finally detected is shown in the rightmost column of Table 2.

Row | SMILES | Maximum time of detection after administration [h]
1 | CC[C@H](C)[C@@H]1NC(=O)[C@H](CCCNC(=N)N)NC(=O)[C@H](CC(=O)O)NC(=O)[C@H](CCSC)NC(=O)[C@H](CCCNC(=N)N)NC(=O)CNC(=O)CNC(=O)[C@H](Cc2ccccc2)NC(=O)[C@@H](NC(=O)[C@H](CO)NC(=O)[C@H](CO)NC(=O)[C@H](CCCNC(=N)N)NC(=O)[C@H](CCCNC(=N)N)NC(=O)[C@H](CC(C)C)NC(=O)[C@H](CO)NC(=O)CO[C@@H]2O[C@H](CO)[C@@H](O[C@@H]3O[C@H](CO)[C@@H](O[C@@H]4O[C@H](CO[C@H]5O[C@H](CO)[C@@H](O)[C@H](O)[C@@H]5O[C@@H]5O[C@H](CO)[C@@H](O[C@@H]6O[C@H](CO[C@]7(C(=O)O)C[C@H](O)[C@@H](NC(C)=O)[C@H]([C@H](O)[C@H](O)CO)O7)[C@H](O)[C@H](O)[C@H]6O)[C@H](O)[C@H]5NC(C)=O)[C@@H](O)[C@H](O[C@H]5O[C@H](CO)[C@@H](O)[C@H](O)[C@@H]5O[C@@H]5O[C@H](CO)[C@@H](O[C@@H]6O[C@H](CO[C@]7(C(=O)O)C[C@H](O)[C@@H](NC(C)=O)[C@H]([C@H](O)[C@H](O)CO)O7)[C@H](O)[C@H](O)[C@H]6O)[C@H](O)[C@H]5NC(C)=O)[C@@H]4O)[C@H](O)[C@H]3NC(C)=O)[C@H](O)[C@H]2NC(C)=O)CSSC[C@@H](C(=O)N[C@@H](CC(N)=O)C(=O)N[C@@H](CO)C(=O)N[C@@H](Cc2ccccc2)C(=O)N[C@@H](CCCNC(=N)N)C(=O)N[C@@H](Cc2ccc(O)cc2)C(=O)O)NC(=O)CNC(=O)[C@H](CC(C)C)NC(=O)CNC(=O)[C@H](CO)NC(=O)[C@H](CCC(N)=O)NC(=O)[C@H](C)NC(=O)CNC1=O [Compound 2-1, SG-hANP(1-28)] | 3
2 | CC[C@H](C)[C@@H]1NC(=O)[C@H](CCCNC(=N)N)NC(=O)[C@H](CC(=O)O)NC(=O)[C@H](CCSC)NC(=O)[C@H](CCCNC(=N)N)NC(=O)CNC(=O)CNC(=O)[C@H](Cc2ccccc2)NC(=O)[C@@H](NC(=O)[C@H](CO)NC(=O)[C@H](CO)NC(=O)[C@H](CCCNC(=N)N)NC(=O)[C@H](CCCNC(=N)N)NC(=O)[C@H](CC(C)C)NC(=O)[C@H](CO)NC(=O)CCc2cn(CCO[C@@H]3O[C@H](CO)[C@@H](O[C@@H]4O[C@H](CO)[C@@H](O[C@@H]5O[C@H](CO[C@H]6O[C@H](CO)[C@@H](O)[C@H](O)[C@@H]6O[C@@H]6O[C@H](CO)[C@@H](O[C@@H]7O[C@H](CO[C@]8(C(=O)O)C[C@H](O)[C@@H](NC(C)=O)[C@H]([C@H](O)[C@H](O)CO)O8)[C@H](O)[C@H](O)[C@H]7O)[C@H](O)[C@H]6NC(C)=O)[C@@H](O)[C@H](O[C@H]6O[C@H](CO)[C@@H](O)[C@H](O)[C@@H]6O[C@@H]6O[C@H](CO)[C@@H](O[C@@H]7O[C@H](CO[C@]8(C(=O)O)C[C@H](O)[C@@H](NC(C)=O)[C@H]([C@H](O)[C@H](O)CO)O8)[C@H](O)[C@H](O)[C@H]7O)[C@H](O)[C@H]6NC(C)=O)[C@@H]5O)[C@H](O)[C@H]4NC(C)=O)[C@H](O)[C@H]3NC(C)=O)nn2)CSSC[C@@H](C(=O)N[C@@H](CC(N)=O)C(=O)N[C@@H](CO)C(=O)N[C@@H](Cc2ccccc2)C(=O)N[C@@H](CCCNC(=N)N)C(=O)N[C@@H](Cc2ccc(O)cc2)C(=O)O)NC(=O)CNC(=O)[C@H](CC(C)C)NC(=O)CNC(=O)[C@H](CO)NC(=O)[C@H](CCC(N)=O)NC(=O)[C@H](C)NC(=O)CNC1=O [Compound 2-12, SG-triazole-hANP(1-28)] | 1.5
